According to patent US20140212436A1:
Read-outs that look alike come from different tables or passages of the source.

Key:
[1] = biological target: human FcγRI (human) (UniProt P12314); assay: Biacore
[2] = biological target: recombinant human FcγRIIb protein (human) (UniProt P31994); assay: Biacore
[3] = biological target: human H131 FcγRIIa (human) (UniProt P12318); assay: Biacore
[4] = biological target: human V158 FcγRIIIa (human) (UniProt P08637); assay: Biacore
[5] = biological target: FcγRIIaR (human) (UniProt P12318); assay: Biacore
[6] = biological target: FcγRIIIaF (human) (UniProt P08637); assay: Biacore
[7] = biological target: IgE (from a human IgE ELISA kit, Bethyl Laboratories) (human) (UniProt P01854); assay: sandwich ELISA, antibody coated as capture; the concentration is that of IgE
[8] = biological target: human FcγRI (human) (UniProt P12314); assay: Biacore; remark: listed apart in the source
[9] = biological target: recombinant human FcγRIIb protein (human) (UniProt P31994); assay: Biacore; remark: listed apart in the source
[10] = biological target: human H131 FcγRIIa (human) (UniProt P12318); assay: Biacore; remark: listed apart in the source
[11] = biological target: human V158 FcγRIIIa (human) (UniProt P08637); assay: Biacore; remark: listed apart in the source
[12] = biological target: XENP12704, anti-IgE antibody containing human C3d fused to the C-terminus of Ckappa (human) (UniProt P01834); assay: ELISA, CR2-Fc coated; the concentration is that of XENP12704

Sequence of recombinant human FcγRIIb protein (human) (P31994 46-217 limits assumed): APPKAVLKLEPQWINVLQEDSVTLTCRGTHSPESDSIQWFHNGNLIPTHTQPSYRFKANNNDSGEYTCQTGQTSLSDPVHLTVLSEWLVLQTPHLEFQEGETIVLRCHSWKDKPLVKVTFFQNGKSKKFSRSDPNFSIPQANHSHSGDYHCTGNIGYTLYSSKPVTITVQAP
Sequence of FcγRIIaR (human) (P12318 34-217 H167R limits assumed): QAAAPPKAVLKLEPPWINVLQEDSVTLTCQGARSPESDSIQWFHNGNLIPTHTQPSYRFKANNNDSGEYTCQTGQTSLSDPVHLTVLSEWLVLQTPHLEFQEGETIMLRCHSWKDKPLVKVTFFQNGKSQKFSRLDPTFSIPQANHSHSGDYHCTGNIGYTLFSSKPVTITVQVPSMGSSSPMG
Sequence of human H131 FcγRIIa (human) (P12318 other isoform, or with tags, fused parts or gaps limits assumed): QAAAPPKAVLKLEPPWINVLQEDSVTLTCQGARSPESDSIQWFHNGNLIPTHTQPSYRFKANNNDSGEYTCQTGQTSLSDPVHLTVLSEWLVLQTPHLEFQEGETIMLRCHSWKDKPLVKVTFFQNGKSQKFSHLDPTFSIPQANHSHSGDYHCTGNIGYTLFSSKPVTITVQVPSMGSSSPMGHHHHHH
Sequence of human V158 FcγRIIIa (human) (P08637 other isoform, or with tags, fused parts or gaps limits assumed): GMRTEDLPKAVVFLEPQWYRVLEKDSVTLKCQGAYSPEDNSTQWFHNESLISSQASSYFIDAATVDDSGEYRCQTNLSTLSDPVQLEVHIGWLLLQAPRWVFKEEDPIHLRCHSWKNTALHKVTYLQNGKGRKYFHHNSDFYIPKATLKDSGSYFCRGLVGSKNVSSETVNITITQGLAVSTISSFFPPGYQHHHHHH
Sequence of FcγRIIIaF (human) (P08637 17-208 limits assumed): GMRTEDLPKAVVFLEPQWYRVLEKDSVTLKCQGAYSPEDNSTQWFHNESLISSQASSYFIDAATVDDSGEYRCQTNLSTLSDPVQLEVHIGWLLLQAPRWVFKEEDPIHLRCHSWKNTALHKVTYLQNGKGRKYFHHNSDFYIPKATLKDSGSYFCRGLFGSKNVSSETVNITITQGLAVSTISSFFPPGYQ
Sequence of human FcγRI (human) (P12314 16-288 limits assumed): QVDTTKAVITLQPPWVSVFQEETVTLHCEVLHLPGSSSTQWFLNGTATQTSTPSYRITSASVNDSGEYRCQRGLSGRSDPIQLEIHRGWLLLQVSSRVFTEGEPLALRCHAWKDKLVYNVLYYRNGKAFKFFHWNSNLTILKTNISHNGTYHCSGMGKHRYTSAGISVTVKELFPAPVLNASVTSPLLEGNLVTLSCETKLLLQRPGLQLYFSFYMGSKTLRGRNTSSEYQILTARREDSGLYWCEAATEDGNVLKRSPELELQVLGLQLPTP
Sequence of XENP12562 (hSCR1-4 Fc fusion) (P20023 21-273 limits assumed): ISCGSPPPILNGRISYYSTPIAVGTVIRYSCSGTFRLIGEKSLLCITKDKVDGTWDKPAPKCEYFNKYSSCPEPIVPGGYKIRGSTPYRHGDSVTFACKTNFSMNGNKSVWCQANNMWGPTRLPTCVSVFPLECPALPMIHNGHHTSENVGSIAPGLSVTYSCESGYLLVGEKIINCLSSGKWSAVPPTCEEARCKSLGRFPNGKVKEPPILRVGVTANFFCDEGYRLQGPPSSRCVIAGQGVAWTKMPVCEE
Sequence of XENP12561 (hSCR1-2 Fc fusion) (P20023 21-148 limits assumed): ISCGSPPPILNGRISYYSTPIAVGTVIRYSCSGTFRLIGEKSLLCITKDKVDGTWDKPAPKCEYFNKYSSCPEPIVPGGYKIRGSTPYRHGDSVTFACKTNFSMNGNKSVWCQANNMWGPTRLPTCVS
Sequence of IgE (from a human IgE ELISA kit, Bethyl Laboratories) (human) (P01854 other isoform, or with tags, fused parts or gaps): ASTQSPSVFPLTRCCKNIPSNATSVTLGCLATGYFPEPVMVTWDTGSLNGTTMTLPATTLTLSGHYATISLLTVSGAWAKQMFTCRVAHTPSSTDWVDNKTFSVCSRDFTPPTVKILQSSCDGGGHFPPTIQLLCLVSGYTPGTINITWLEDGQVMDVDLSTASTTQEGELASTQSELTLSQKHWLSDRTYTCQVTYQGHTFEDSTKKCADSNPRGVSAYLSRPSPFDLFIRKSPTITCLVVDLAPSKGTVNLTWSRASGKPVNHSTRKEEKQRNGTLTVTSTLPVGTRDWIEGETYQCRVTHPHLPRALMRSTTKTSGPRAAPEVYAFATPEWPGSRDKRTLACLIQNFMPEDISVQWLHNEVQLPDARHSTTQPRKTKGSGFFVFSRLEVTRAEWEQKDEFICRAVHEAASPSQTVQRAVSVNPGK

| Substance | Fold [1] | Kd [1] | Fold [2] | Kd [2] | Fold [3] | Kd [3] | Fold [4] | Kd [4] | Fold [5] | Kd [5] | further results |
| --- | --- | --- | --- | --- | --- | --- | --- | --- | --- | --- | --- |
| G236S (antibody) | 0.0268 | 12.3 nM | 1.02 | 1440 nM | 3.76 | 172 nM | 0.00367 | 52200 nM | 2.33 | 369 nM | – |
| L234D/S267E (antibody) | 0.0286 | 11.5 nM | 21.7 | 67.8 nM | – | – | 0.14 | 1370 nM | 12.7 | 67.7 nM | – |
| L234F/S267E (antibody) | 0.661 | 0.498 nM | 26.4 | 55.7 nM | 0.509 | 1270 nM | 0.0938 | 2040 nM | 20.7 | 41.6 nM | – |
| L234W (antibody) | – | 10.5 nM | – | 1770 nM | – | 1160 nM | – | 6590 nM | – | – | – |
| L235A (antibody) | 0.0179 | 18.4 nM | 0.351 | 4180 nM | 0.0486 | 13300 nM | 0.314 | 609 nM | 0.166 | 5180 nM | – |
| L235I (antibody) | 0.0197 | 16.7 nM | 0.908 | 1620 nM | 0.181 | 3580 nM | 0.903 | 212 nM | 0.666 | 1290 nM | – |
| L235Y (antibody) | 0.00232 | 142 nM | 1.05 | 1400 nM | 1.35 | 479 nM | 0.504 | 380 nM | 1.28 | 669 nM | – |
| L235Y/S239D/S267E (antibody) | 1.07 | 0.307 nM | 116 | 12.6 nM | 1.05 | 617 nM | 2.6 | 73.5 nM | 98.9 | 8.68 nM | – |
| L235Y/S267E/H268E (antibody) | 0.0103 | 32.1 nM | 69.9 | 21 nM | 0.157 | 4130 nM | 0.428 | 447 nM | 48.2 | 17.8 nM | – |
| L235Y/S267E/L328F (antibody) | 0.00436 | 75.5 nM | 187 | 7.83 nM | 0.758 | 853 nM | – | – | 171 | 5.02 nM | – |
| L328F (antibody) | – | 0.452 nM | – | 541 nM | – | – | – | 58400 nM | – | 166 nM | Kd [6]: 5110 nM |
| MaE11_IgG1_G236R/L328R (antibody) | – | – | – | – | – | – | – | – | – | – | EC50 (read off the curve) [7]: 0.05 µg/mL |
| S239D/S267E/L328F (antibody) | 1.45 | 0.227 nM | 428 | 3.43 nM | 1.71 | 378 nM | 0.216 | 887 nM | 416 | 2.06 nM | – |
| S267A (antibody) | 1.15 | 0.287 nM | – | 408 nM | 1.22 | 530 nM | 0.952 | 201 nM | 4.29 | 200 nM | – |
| S267E/H268E/L328F (antibody) | 0.991 | 0.333 nM | 344 | 4.26 nM | 0.826 | 783 nM | 0.092 | 2080 nM | 253 | 3.4 nM | – |
| S267E/L328Y (antibody) | 0.224 | 1.47 nM | 43.1 | 34.1 nM | 1.34 | 481 nM | – | – | 122 | 7.06 nM | – |
| V266M (antibody) | 1.25 | 0.264 nM | 1.91 | 770 nM | 1.17 | 553 nM | 0.547 | 350 nM | 3.13 | 274 nM | – |
| XENP12561 (hSCR1-2 Fc fusion) (from UniProt P20023 21-148) | – | – | – | – | – | – | – | – | – | – | EC50 (read off the curve) [12]: 0.02 µg/mL |
| XENP12562 (hSCR1-4 Fc fusion) (from UniProt P20023 21-273) | – | – | – | – | – | – | – | – | – | – | EC50 (read off the curve) [12]: 0.003 µg/mL |
| anti-CD19 antibody HuAM4G7, IgG1 Fc variant G236D/S267E | – | 3.71 nM | – | 26.6 nM | – | 2730 nM | – | 579 nM | – | – | Kd [8]: 3.2 nM; Kd [9]: 25 nM; Kd [10]: 2200 nM |
| anti-CD19 antibody HuAM4G7, IgG1 Fc variant S267E/L328F | 1.5 | 0.22 nM | 242 | 6.06 nM | 0.7 | 923 nM | 0.038 | 5040 nM | 275 | 3.12 nM | Fold [8]: 1.2; Kd [8]: 0.23 nM; Fold [9]: 429; Kd [9]: 4.2 nM; Fold [10]: 0.97; Kd [10]: 880 nM |
| anti-CD19 antibody HuAM4G7, WT (native) IgG1 Fc (antibody; other documents disagree on this pair) | – | – | – | – | – | – | – | – | – | – | Fold [6]: 1; Kd [6]: 1350 nM |

Continued, in another order:

| Fold [1] | Kd [1] | Fold [2] | Kd [2] | Fold [3] | Kd [3] | Fold [4] | Kd [4] | Fold [5] | Kd [5] | Substance | further results |
| --- | --- | --- | --- | --- | --- | --- | --- | --- | --- | --- | --- |
| 2.06 | 0.16 nM | 1.33 | 1100 nM | 0.733 | 882 nM | 0.398 | 481 nM | 1.6 | 536 nM | A327D (antibody) | – |
| 2.35 | 0.14 nM | 3.06 | 480 nM | 1.89 | 342 nM | 3.08 | 62.2 nM | 4.19 | 205 nM | H268D (antibody) | – |
| 2.74 | 0.12 nM | 2.62 | 560 nM | 1.43 | 453 nM | 2.19 | 87.5 nM | 3.19 | 269 nM | H268E (antibody) | – |
| 3.53 | 0.0934 nM | 3.6 | 408 nM | – | 590 nM | 8.14 | 23.5 nM | 3.73 | 230 nM | S239D (antibody) | Fold [6]: 6.32; Kd [6]: 214 nM |
| 1.65 | 0.2 nM | 0.803 | 1830 nM | 0.49 | 1320 nM | 3.49 | 54.8 nM | 0.688 | 1250 nM | S239E (antibody) | – |
| 2.11 | 0.156 nM | 4.45 | 330 nM | 0.93 | 695 nM | 1.51 | 127 nM | 8.99 | 95.5 nM | S267D (antibody) | – |
| 2.81 | 0.117 nM | 20.4 | 71.9 nM | 0.753 | 859 nM | 0.381 | 503 nM | 29.5 | 29.1 nM | S267E (antibody) | Fold [8]: 1.1; Kd [8]: 0.26 nM; Fold [9]: 30; Kd [9]: 60 nM; Fold [10]: 0.89; Kd [10]: 960 nM; Fold [11]: 0.29; Kd [11]: 690 nM |
| 1.66 | 0.198 nM | 21.2 | 69.1 nM | – | – | 0.00199 | 96300 nM | 16.7 | 51.3 nM | S267E/A327D (antibody) | – |
| 2.3 | 0.143 nM | 30.9 | 47.5 nM | 2.66 | 243 nM | 0.00894 | 21400 nM | 29.3 | 29.3 nM | S267E/A327E (antibody) | – |
| 3.52 | 0.0935 nM | 40.6 | 36.1 nM | 0.765 | 845 nM | 3.15 | 60.8 nM | 41.7 | 20.6 nM | S267E/H268E (antibody) | – |
| 1.98 | 0.166 nM | 29.2 | 50.2 nM | 10.9 | 59.2 nM | 0.0448 | 4270 nM | 30.7 | 28 nM | V266M/S267E (antibody) | – |
| – | 0.0374 nM | – | 101 nM | – | 163 nM | – | – | – | 68.6 nM | anti-CD19 antibody HuAM4G7, IgG1 Fc variant S239D/I332E | Kd [8]: 0.14 nM; Kd [9]: 88 nM; Kd [10]: 220 nM; Kd [11]: 6.8 nM; Kd [6]: 28.2 nM |
| 23.2 | 0.0142 nM | 111 | 13.3 nM | 1.27 | 510 nM | 3.74 | 51.2 nM | 120 | 7.16 nM | anti-CD19 antibody HuAM4G7, IgG1 Fc variant S239D/S267E | Fold [8]: 1.6; Kd [8]: 0.17 nM; Fold [9]: 150; Kd [9]: 12 nM; Fold [10]: 1.2; Kd [10]: 700 nM; Fold [11]: 3; Kd [11]: 62 nM; Fold [6]: 2.62; Kd [6]: 516 nM |
